Laboratory results published in patent US20260055176A1 (SURFACE ONCOLOGY, published 2026).
Blank lines part the entries; values can stand above or below the binder they belong to.

How the values were obtained:
[1] = target: T1, recombinant human IL-27 (human, UniProt Q14213 21-229; Q8NEV9 29-243); experiment: cell-based or functional assay
T1 sequence 1: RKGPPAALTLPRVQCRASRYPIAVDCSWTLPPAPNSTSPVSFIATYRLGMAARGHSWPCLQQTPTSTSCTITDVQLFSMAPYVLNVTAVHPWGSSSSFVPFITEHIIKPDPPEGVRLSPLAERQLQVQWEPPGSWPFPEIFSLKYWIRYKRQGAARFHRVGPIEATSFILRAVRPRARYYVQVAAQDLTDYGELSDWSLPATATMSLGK
T1 sequence 2: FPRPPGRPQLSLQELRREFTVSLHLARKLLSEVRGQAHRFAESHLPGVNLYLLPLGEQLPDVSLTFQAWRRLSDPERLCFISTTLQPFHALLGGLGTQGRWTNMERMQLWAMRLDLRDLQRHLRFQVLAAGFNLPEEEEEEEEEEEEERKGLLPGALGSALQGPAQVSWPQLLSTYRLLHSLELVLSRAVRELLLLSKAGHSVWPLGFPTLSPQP

[2] = target: T1, recombinant human IL-27; experiment: SPR (Biacore T200), hIL-27 immobilised on CM5, single cycle kinetics
Procedure: The antibodies were further characterized by surface plasmon resonance (SPR). Kinetic experiments were performed on a Biacore T200 (GE Healthcare, Uppsala, Sweden). All experiments were run at 25° C. with HBS-P+running buffer (pH 7.4) (GE Healthcare, Little Chalfont, UK) using hIL-27 (R&D Systems, Abingdon, UK). Human IL-27 (hIL-27) antigen was captured on a CM5 chip to ˜ 16 RU. Immobilization was carried out at a protein concentration of 1 μg/mL in 10 mM acetate buffer pH 5.0. A three point, three-fold dilution range from 3.3 nM to 30 nM of antibody diluted in HBS-P+buffer without regeneration between each concentration was used. The association phase for the three injections of increasing concentrations of antibody was monitored for 75 seconds each time and a single dissociation phase was measured for 250 seconds following the last injection of antibody. Regeneration of the hIL-27 surface was conducted using a single injection of 2M MgCl₂ for 120s. Multiple repeats (n=4) of the chimeric antibody were performed throughout the assay to check the stability of the surface and analyte over the kinetic cycles.

[3] = target: T1, recombinant human IL-27; experiment: MSD sandwich immunoassay: named antibody coated as capture (0.5 ug/mL), recombinant human IL-27 500 ng/mL, biotinylated SRF381 as detection, SULFO-TAG streptavidin
Procedure: The ability of anti-IL-27 antibodies to pair with the anti-p28 antibody SRF381 to detect recombinant human IL-27 was assessed by sandwich MSD Immunoassay. Briefly, MSD QUICKPLEX 96-well plates (Meso Scale Discovery L55XA) were coated with 50 μL/well anti-IL-27 antibodies (0.5 μg/mL diluted in PBS) sealed and incubated overnight at 4° C. Plates were washed 3 times with 150 μL/well of wash buffer (PBS+0.01% Tween). Plates were then blocked with 200 μL/well of blocking buffer (PBS+1% BSA+0.01% Tween) for 1 hour at room temperature (RT) with shaking. Blocking buffer was decanted, plates were washed 3 times with 150 μL/well of wash buffer, and 50 μL/well recombinant human IL-27 (R&D Systems 2526-IL/CF) (500 ng/mL diluted in blocking buffer) was added to each well for 2 hours at RT with shaking. Plates were washed 3 times with 150 μL/well of wash buffer, and 50 μL biotinylated SRF381 (diluted 0.5 μg/mL in blocking buffer) was added to each well for 1 hour at RT with shaking. […] Plates were washed 3 times with 150 μL/well of wash buffer and 150 μL of MSD read buffer (Meso Scale Discovery R92TC-1) (diluted to 2X in deionized water) was added to each well and plates were read on a MESO QUICKPLEX SQ120.

B1: SRF381 (antibody, V domains shown)
VH: EVQLVESGGGLVKPGGSLRLSCAASGFTFRSYGMNWVRQAPGKGLEWVSSISSSSSYIYYADSVKGRFTISRDNAKNSLYLQMNSLRAEDTAVYYCARDGGRTSYTATAHNWFDPWGQGTLVTVSS
VL: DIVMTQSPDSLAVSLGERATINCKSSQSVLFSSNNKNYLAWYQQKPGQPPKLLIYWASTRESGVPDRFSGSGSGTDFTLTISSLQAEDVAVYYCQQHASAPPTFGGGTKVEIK
- IC50 of inhibition of IL-27-mediated phosphorylation of STAT1 in HUT-78 cells [1]: 0.08 µg/mL
- IC50 of inhibition of IL-27-mediated phosphorylation of STAT1 in U937 cells [1]: 0.081 µg/mL
- IC50 of inhibition of IL-27-mediated phosphorylation of STAT1 in pooled human PBMCs [1]: 0.141 µg/mL

B2: SRF388 (antibody, V domains shown)
VH: EVQLVESGGGLVKPGGSLRLSCAASGFTFRSYGMNWVRQAPGKGLEWVSGISSSGSYIYYADSVKGRFTISRDNAKNSLYLQMNSLRAEDTAVYYCARDGGRTSYTATAHNWFDPWGQGTLVTVSS
VL: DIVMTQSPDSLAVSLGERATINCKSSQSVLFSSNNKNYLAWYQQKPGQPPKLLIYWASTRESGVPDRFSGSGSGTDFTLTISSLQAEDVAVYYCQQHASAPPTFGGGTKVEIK
- IC50 of inhibition of IL-27-mediated phosphorylation of STAT1 in HUT-78 cells [1]: 0.095 µg/mL
- IC50 of inhibition of IL-27-mediated phosphorylation of STAT1 in U937 cells [1]: 0.096 µg/mL
- IC50 of inhibition of IL-27-mediated phosphorylation of STAT1 in pooled human PBMCs [1]: 0.0583 µg/mL

B3: Ab7.7 (antibody, human IgG1, kappa, V domains shown)
VH: EVKLVESGGGLVQPGGSLRLSCAASGFTFTSYSMSWVRQAPGKGLEWVAYISYDGGSAYYPDTVKGRFTISRDNSKKTLYLQMSSLKSEDTAMYYCARHGDYDDDDAMDYWGQGTSVTVSS
VL: DIQMTQSPSSLSASVGDRVTITCRASENIYSYLNWYQQKPGKAPKLLVYNAETLTEGVPSRFSGSGSGTDFTLTISSLQPEDFATYYCQHHYGTPLTFGQGTKLEIKR
notes: humanized, human IgG1 / kappa; Ab7-VL4 variant; also called Ab7-VH1-IgG1 + Ab7-VL4-Kappa
- binding result [2]: no binding (tested: 30 nM)

B8: SRF605 (antibody, V domains shown)
VH: QVQLQESGPGLVKPSQTLSLTCTVSGGSISSGGYYWSWIRQHPGKGLEWIGNIYYSGSTYYNPSLKSRVTISVDTSKNQFSLKLSSVTAADTAVYYCARDGVYQPGAYYWGQGTLVTVSS
VL: DIQLTQSPSSVSASVGDRVTITCRASQGISSWLAWYQQKPGKAPKLLIYGASSLQSGVPSRFSGSGSGTDFTLTISSLQPEDFATYYCQQGVSFPITFGGGTKVEIKR
notes: also called SRF605-A; SRF605-B
- binding result [3]: binds

Next, values leading:

- binding result [2]: no binding (tested: 30 nM)
B4: Ab7.11 (antibody, human IgG1, kappa, V domains shown)
VH: EVQLVESGGGLVQPGGSLRLSCAASGFTFTSYSMSWVRQAPGKGLEWVAYISYDGGSAYYPDTVKGRFTISRDNSKNTLYLQMSSLKSEDTAMYYCARHGDYDDDDAMDYWGQGTLVTVSS
VL: DIQMTQSPSSLSASVGDRVTITCRASENIYSYLNWYQQKPGKAPKLLVYNAETLTEGVPSRFSGSGSGTDFTLTISSLQPEDFATYYCQHHYGTPLTFGQGTKLEIKR
notes: humanized, human IgG1 / kappa; Ab7-VL4 variant; also called Ab7-VH2-IgG1 + Ab7-VL4-Kappa

- binding result [2]: no binding (tested: 30 nM)
B5: Ab7.23 (antibody, human IgG1, kappa, V domains shown)
VH: EVQLVESGGGLVQPGGSLRLSCAASGFTFTSYSMSWVRQAPGKGLEWVSYISYDGGSAYYPDTVKGRFTISRDNSKNTLYLQMNSLRAEDTAVYYCARHGDYDDDDAMDYWGQGTLVTVSS
VL: DIQMTQSPSSLSASVGDRVTITCRASENIYSYLNWYQQKPGKAPKLLVYNAETLTEGVPSRFSGSGSGTDFTLTISSLQPEDFATYYCQHHYGTPLTFGQGTKLEIKR
notes: humanized, human IgG1 / kappa; Ab7-VL4 variant; also called Ab7-VH5-IgG1 + Ab7-VL4-Kappa

- binding result [2]: no binding (tested: 30 nM)
B6: Ab7.15 (antibody, human IgG1, kappa, V domains shown)
VH: EVKLVESGGGLVQPGGSLRLSCAASGFTFTSYSMSWVRQAPGKGLEWVAYISYDGGSAYYPDTVKGRFTISRDNSKKTLYLQMNSLRAEDTAVYYCARHGDYDDDDAMDYWGQGTLVTVSS
VL: DIQMTQSPSSLSASVGDRVTITCRASENIYSYLNWYQQKPGKAPKLLVYNAETLTEGVPSRFSGSGSGTDFTLTISSLQPEDFATYYCQHHYGTPLTFGQGTKLEIKR
notes: humanized, human IgG1 / kappa; Ab7-VL4 variant; also called Ab7-VH3-IgG1 + Ab7-VL4-Kappa

- binding result [2]: no binding (tested: 30 nM)
B7: Ab7.19 (antibody, human IgG1, kappa, V domains shown)
VH: EVQLVESGGGLVQPGGSLRLSCAASGFTFTSYSMSWVRQAPGKGLEWVAYISYDGGSAYYPDTVKGRFTISRDNSKNTLYLQMNSLRAEDTAVYYCARHGDYDDDDAMDYWGQGTLVTVSS
VL: DIQMTQSPSSLSASVGDRVTITCRASENIYSYLNWYQQKPGKAPKLLVYNAETLTEGVPSRFSGSGSGTDFTLTISSLQPEDFATYYCQHHYGTPLTFGQGTKLEIKR
notes: humanized, human IgG1 / kappa; Ab7-VL4 variant; also called Ab7-VH4-IgG1 + Ab7-VL4-Kappa
